Assay results taken from patent US20260217847A1 (NANJING REGENECORE BIOTECH, published 2026).

Key:
TfR1 peptide D1-helix1 = molecular target: T1, TfR1 peptide D1-helix1 (human); test: peptide ELISA on streptavidin plate, 2 µg/mL 2H7-hFc
T1 construct: Synthetic peptide, captured on a streptavidin-coated plate; also called peptide No. 1
T1 peptide: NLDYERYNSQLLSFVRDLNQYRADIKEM
Experimental: (§1) The peptide-antibody binding was identified using a standard enzyme-linked immunosorbent assay (ELISA). The steps were as follows: [0244] (1) The wells of an ELISA plate were coated with 100 μL of 2 μg/mL SA (streptavidin) protein at 4° C. overnight. […] (2) The wells of the ELISA plate were washed with PBST buffer. After adding 200 μL of 2% BSA, the plate was blocked at 37° C. for 1 h. […] (3) The peptide protein was diluted to 2 μg/mL, and a negative control and a positive control (AVI-tagged TfR1 protein) were included. Each experiment contained duplicate controls. […] (4) The wells of the ELISA plate were washed multiple times with PBST buffer. Then, 100 μL of the diluted peptide protein solution from step (3) was added into wells in duplicate, and along with the negative control wells, incubated at 37° C. for 1 h. [0248] (5) The wells of the ELISA plate were washed multiple times with PBST buffer. […] [0249] (6) The wells of the ELISA plate were washed multiple times with PBST buffer. Then, 100 μL of 2× anti-hFc HRP secondary antibody was added, and the plate was incubated at 37° C. for 1 h. [0250] (7) The wells of the ELISA plate were washed multiple times with PBST buffer. After adding 100 μL of TMB chromogenic solution, the reaction was carried out in the dark at room temperature for 30 min. [0251] (8) 100 μL of stop solution (1 mol/L HCl) was added to terminate the reaction. OD450 was measured using a microplate reader, and the readings were recorded.

[1] = molecular target: T2, TfR1 peptide D1-helix2-helix3 (human); test: as above
T2 construct: Synthetic peptide, captured on a streptavidin-coated plate; also called peptide No. 4
T2 peptide: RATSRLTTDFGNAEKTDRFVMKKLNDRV
Experimental: as §1

TfR1 peptide D3-helix1 = molecular target: T3, TfR1 peptide D3-helix1 (human); test: as above
T3 construct: Synthetic peptide, captured on a streptavidin-coated plate; also called peptide No. 5
T3 peptide: RLYWDDLKRKLSEKLDSTD
Experimental: as §1

TfR1 peptide D3-helix2 [2] = molecular target: T4, TfR1 peptide D3-helix2 (human); test: as above
T4 construct: Synthetic peptide, captured on a streptavidin-coated plate; also called peptide No. 6
T4 peptide: FTSTIKLLNENSYV
Experimental: as §1

TfR1 peptide D3-helix3 = molecular target: T5, TfR1 peptide D3-helix3 (human); test: as above
T5 construct: Synthetic peptide, captured on a streptavidin-coated plate; also called peptide No. 7
T5 peptide: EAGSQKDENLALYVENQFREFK
Experimental: as §1

[3] = molecular target: T6, TfR1 peptide D3-helix1-helix2 (human); test: as above
T6 construct: Synthetic peptide, captured on a streptavidin-coated plate; also called peptide No. 8
T6 peptide: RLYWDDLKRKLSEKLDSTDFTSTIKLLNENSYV
Experimental: as §1

[4] = molecular target: T7, TfR1 peptide D3-helix2-helix3 (human); test: as above
T7 construct: Synthetic peptide, captured on a streptavidin-coated plate; also called peptide No. 9
T7 peptide: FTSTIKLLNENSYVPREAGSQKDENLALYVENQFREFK
Experimental: as §1

[5] = molecular target: T8, TfR1 peptide D3-helix3-loop1 (human); test: as above
T8 construct: Synthetic peptide, captured on a streptavidin-coated plate; also called peptide No. 10
T8 peptide: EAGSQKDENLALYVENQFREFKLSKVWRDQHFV
Experimental: as §1

TfR1 peptide D3-loop1 = molecular target: T9, TfR1 peptide D3-loop1 (human); test: as above
T9 construct: Synthetic peptide, captured on a streptavidin-coated plate; also called peptide No. 11
T9 peptide: LSKVWRDQHFV
Experimental: as §1

TfR1 peptide D2-loop1 = molecular target: T10, TfR1 peptide D2-loop1 (human); test: as above
T10 construct: Synthetic peptide, captured on a streptavidin-coated plate; also called peptide No. 12
T10 peptide: GTKKDFEDLY
Experimental: as §1

TfR1 peptide D2-loop1-K = molecular target: T11, TfR1 peptide D2-loop1-K (human); test: as above
T11 construct: Synthetic peptide, captured on a streptavidin-coated plate; also called peptide No. 13
T11 peptide: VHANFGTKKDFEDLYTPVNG
Experimental: as §1

TfR1 peptide D2-loop3-K [6] = molecular target: T12, TfR1 peptide D2-loop3-K (human); test: as above
T12 construct: Synthetic peptide, captured on a streptavidin-coated plate; also called peptide No. 14
T12 peptide: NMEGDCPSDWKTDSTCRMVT
Experimental: as §1

TfR1 peptide D1-helix5 = molecular target: T13, TfR1 peptide D1-helix5 (human); test: as above
T13 construct: Synthetic peptide, captured on a streptavidin-coated plate; also called peptide No. 17
T13 peptide: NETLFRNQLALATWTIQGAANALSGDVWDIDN
Experimental: as §1

TfR1 peptide D2-loop2-K [7] = molecular target: T14, TfR1 peptide D2-loop2-K (human); test: as above
T14 construct: Synthetic peptide, captured on a streptavidin-coated plate; also called peptide No. 21
T14 peptide: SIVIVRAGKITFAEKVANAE
Experimental: as §1

[8] = molecular target: T2, TfR1 peptide D1-helix2-helix3; test: peptide ELISA on streptavidin plate, 2 µg/mL 2H7-hFc, anti-hFc HRP
Experimental: as §1

TfR1 peptide D3-helix2 [9] = molecular target: T4, TfR1 peptide D3-helix2; test: as above
Experimental: as §1

[10] = molecular target: T7, TfR1 peptide D3-helix2-helix3; test: as above
Experimental: as §1

[11] = molecular target: T8, TfR1 peptide D3-helix3-loop1; test: as above
Experimental: as §1

TfR1 peptide D2-loop3-K [12] = molecular target: T12, TfR1 peptide D2-loop3-K; test: as above
Experimental: as §1

TfR1 peptide D2-loop2-K [13] = molecular target: T14, TfR1 peptide D2-loop2-K; test: as above
Experimental: as §1

binding result (TfR1 peptide D1-helix1): no binding (tested: P/N 1.2, limit 2) | binding result [1]: no binding (tested: P/N 1.4, limit 2) | binding result (TfR1 peptide D3-helix1): no binding (tested: P/N 1.1, limit 2) | binding result (TfR1 peptide D3-helix2 [2]): no binding (tested: P/N 1.3, limit 2) | binding result (TfR1 peptide D3-helix3): no binding (tested: P/N 1.1, limit 2) | binding result [3]: no binding (tested: P/N 1.1, limit 2) | binding result [4]: no binding (tested: P/N 1.2, limit 2) | binding result [5]: no binding (tested: P/N 1.7, limit 2) | binding result (TfR1 peptide D3-loop1): no binding (tested: P/N 1.4, limit 2) | binding result (TfR1 peptide D2-loop1): no binding (tested: P/N 1.4, limit 2) | binding result (TfR1 peptide D2-loop1-K): no binding (tested: P/N 1.2, limit 2) | binding result (TfR1 peptide D2-loop3-K [6]): no binding (tested: P/N 1.5, limit 2) | binding result (TfR1 peptide D1-helix5): no binding (tested: P/N 1.2, limit 2) | binding result (TfR1 peptide D2-loop2-K [7]): no binding (tested: P/N 1.3, limit 2) | OD450 [8]: 0.19 | OD450 (TfR1 peptide D3-helix2 [9]): 0.17 | OD450 [10]: 0.247 | OD450 [11]: 0.229 | OD450 (TfR1 peptide D2-loop3-K [12]): 0.217 | OD450 (TfR1 peptide D2-loop2-K [13]): 0.16
B1: anti-humanized TfR1 single-domain antibody-Fc fusion antibody 2H7-hFC1 (Fc fusion)
chain (part 1 of 2): ESGGGLVQPGESLRLSCVASGSIWSIYTMGWYRQAPGKQRDFVASITGDSTRTLESVKDRFIISRDNTKNTLYLQMNSLKPEDTAVYYCQAITSLGEYWGQGTQVTVSS
notes: Expressed in 293F cells, Protein A purified; labelled with pHrodo iFL Green in the internalization assays; also called VHH-hFc; not shown: human IgG1 Fc: hinge, CH2 and CH3 regions, from vector RJK-V4-hFC1; limits and junction (multiple cloning site) not stat
